Measurements reported in patent US20240368642A1, “COMPOSITIONS AND METHODS FOR PRODUCTION OF VALUE-ADDED CHEMICALS” (Solugen, Inc., priority 2021, published 2024).
Converted amounts (≈) assume the structure as drawn.

Legend:
[1] = system: all three bacteria tested; experiment: Antimicrobial testing, statement for all three bacteria tested; format: cell-based
Protocol: (§1) All three different heat incubated GDA samples were tested as antimicrobial agents with several different industrially relevant bacteria. The General Aerobic Bacteria isolated and used for this testing were identified as Pseudomonas aeruginosa and Enterobacter aggolomerans. Wild strain Sulfate Reducing Bacteria and Acid Producing Bacteria isolated from the produced fluids was also used. They were placed in a microtiter plate, where a high throughput test can be performed to determine MIC (minimum inhibitor concentration). Samples were tested at the following doses (1000, 500, 250, 125, 62.5, 31.2, 15.6, 7.8, 3.9, and 1.95ppm) and concentration was calculated based on the initial GDA concentration (15 w/v %).
(§2) The antimicrobial testing results shown in FIG. 49 summarizes the MIC of each sample for different bacteria.

[2] = system: General Wild Strain Bacteria; experiment: Microtiter MIC study, general wild strain bacteria; format: cell-based, Pseudomonas aeruginosa and Enterobacter aggolomerans; details: 24 hours of incubation; concentration based on initial GDA concentration
Protocol: as §1, §2

[3] = system: APB (Acid Producing Bacteria); experiment: Microtiter MIC study, acid producing bacteria; format: cell-based, Acid Producing Bacteria isolated from the produced fluids; details: 24 hours of incubation; concentration based on initial GDA concentration
Protocol: as §1, §2

[4] = Glucarate dehydratase reaction on glucarate monitored via LCMS; format: biochemical; details: pH 7.5
Protocol: (§3) A 100 μL volume was prepared containing 0.01% w/v Escherichia coli glucarate dehydratase (GlucD), 10 mM substrate (glucarate, gluconate, or glucuronate), 50 mM potassium phosphate, pH 7.5, 5 mM MgSO4, and 100 mM NaCl. The reaction was allowed to proceed for 24 hours and consumption of glucaric acid was monitored via LCMS at 0, 5mins, 20 mins, 1 hr, 2 hrs, and 24 hours. Full conversion of glucarate was observed within 20 minutes. […] The reaction is schematized in FIG. 36 and the results are graphed in Figure
To determine optimal enzyme loading, a 100 μL volume was prepared containing 0.001, 0.002, 0.005, or 0.01% w/v glucarate dehydratase (GlucD), 10% w/v glucarate, 50 mM potassium phosphate, pH 7.5, 5 mM MgSO4, and 100 mM NaCl. The reaction was allowed to proceed for 74 hours and formation of 4-deoxy-5-keoglucarate and consumption of glucarate was monitored via reverse phase LCMS. […] The reaction is schematized in FIG. 36 and the results are graphed in FIG. 40.

[5] = Glucarate dehydratase reaction with gluconate or glucuronate as substrate; format: biochemical; details: 0.01% w/v GlucD, 10 mM substrate, pH 7.5, 24 hours
Protocol: as §3

[6] = Specific activity of pyranose oxidase (POX) enzymes; format: biochemical; details: Table 4; unit = 1 umol of substrate consumed min^−1
Excerpt: POX is a flavin-dependent enzyme found in lignocellulose-degrading fungi that oxidizes glucose to 2-ketoglucose concomitantly with hydrogen peroxide formation. Recombinant Trametes hirsuita POX is currently used in the food industry for baking, providing some evidence that the enzyme can be produced at low cost. A unit is defined as 1 umol of substrate consumed min^−1. Based on an in-house empirical evaluation, the Irpex lacteus, Trametes multicolor, and Phanerochaete chrysosporium POXs have sufficient starting activity. This is presented graphically in FIG. 32 and Table 4.

[7] = Table 4; previously characterized POX enzymes; cited from earlier work

Oc1ccc(O)c(O)c1O (single isomer, unassigned) [1,2,3,4-tetrahydroxybenzene]
antimicrobial activity (in words) [1]: good antimicrobial activity

O=CCCCC=O [Glutaraldehyde - 50%, Glutaraldehyde]
MIC [2]: 1000 mg/L (≈ 9.99 mM) | MIC [3]: 500 mg/L (≈ 4.99 mM)

GlucD: Escherichia coli glucarate dehydratase
time to full conversion of glucarate ([4]; 0.005% enzyme, 10% w/v glucarate): ≤ 24 h | time to full conversion of glucarate ([4]; 0.01% w/v GlucD, 10 mM glucarate): ≤ 0.333 h | reaction with gluconic or glucuronic acid as substrate [5]: No reaction was observed

Irpex lacteus: POX enzyme of Irpex lacteus
Specific Activity (in-house evaluation) [6]: 6.0 (in-house U mg^−1 | Specific Activity (previously characterized) [7]: evaluation), 86 U mg^−1

Trametes multicolor: POX enzyme of Trametes multicolor
Specific Activity (in-house evaluation) [6]: 6.8 (in-house U mg^−1

B1: Lyophyllum shimeji: POX enzyme of Lyophyllum shimeji (protein, UniProt Q75ZP8 1-618, looked up)
Pyranose 2-oxidase: MSLSTEQMLRDYPRSMQINGQIPKNAIHETYGNDGVDVFIAGSGPIGATYAKLCVEAGLRVVMVEIGAADSFYAVNAEEGTAVPYVPGYHKKNEIEFQKDIDRFVNVIKGALQQVSVPVRNQNVPTLDPGAWSAPPGSSAISNGKNPHQREFENLSAEAVTRGVGGMSTHWTCSTPRIHPPMESLPGIGRPKLSNDPAEDDKEWNELYSEAERLIGTSTKEFDESIRHTLVLRSLQDAYKDRQRIFRPLPLACHRLKNAPEYVEWHSAENLFHSIYNDDKQKKLFTLLTNHRCTRLALTGGYEKKIGAAEVRNLLATRNPSSQLDSYIMAKVYVLASGAIGNPQILYNSGFSGLQVTPRNDSLIPNLGRYITEQPMAFCQIVLRQEFVDSVRDDPYGLPWWKEAVAQHIAKNPTDALPIPFRDPEPQVTTPFTEEHPWHTQIHRDAFSYGAVGPEVDSRVIVDLRWFGATDPEANNLLVFQNDVQDGYSMPQPTFRYRPSTASNVRARKMMADMCEVASNLGGYLPTSPPQFMDPGLALHLAGTTRIGFDKATTVADNNSLVWDFANLYVAGNGTIRTGFGENPTLTSMCHAIKSARSIINTLKGGTDGKNTGEHRNL
Specific Activity (previously characterized) [7]: 1.92 U mg^−1
